Changes are numbered by the printed parent chain. In names and notes the source's numbering stands. One block for each binder: values may come before it.
What was measured:
[1] = biological target: T1, Biotinylated human Amyloid beta 1-42 peptide (human, N-terminal biotin); test: SPR (ProteOn), biotinylated peptide on streptavidin chip, scFv as analyte
T1 construct: Synthetic peptide (rPeptide A1117 or Bachem H-5642); range counted on Amyloid beta; also called N-terminal biotin Abeta 1-42; synthetic biotinylated human Amyloid beta 1-42 peptide

[2] = biological target: T1, Biotinylated human Amyloid beta 1-42 …; test: HTRF epitope competition, purified scFv against Abet0144-GL IgG1-TM (competitor) for biotinylated human Amyloid beta 1-42
[3] = biological target: T2, Amyloid beta plaques in Tg2576 mouse brain sections (human (transgene in mouse), UniProt P05067 672-713, limits assumed); test: in vitro immunohistochemistry, core plaques
T2 construct: domain: Amyloid beta; The two APP mutations lie before the first residue of Amyloid beta; also called native Amyloid beta; Tg2576 brain sections

[4] = biological target: T3, Amyloid beta plaques in human Alzheimer's Disease brain sections (human, UniProt P05067 672-713, limits assumed); test: in vitro immunohistochemistry, core plaques
T3 construct: domain: Amyloid beta; Paraffin sections treated with formic acid; aggregated native peptide of mixed length; also called native Amyloid beta; human AD brain sections
T3 sequence (P05067 672-713 limits assumed): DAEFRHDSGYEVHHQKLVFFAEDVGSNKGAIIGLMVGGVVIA

T1 sequence (peptide, as listed by the source): as the sequence (P05067 672-713 limits assumed) above
T2 sequence (P05067 672-713 limits assumed): as above

- Kd [1]: 0.729 nM
- koff [1]: 0.000103 s⁻¹
- kon [1]: 141000 M⁻¹ s⁻¹
- IC50 [2]: 0.55 nM
B1: Abet0328 scFv (scFv, V domains shown)
VH: EVQLLESGGGLVQPGGSLRLSCAASSDAFKTDTMWWVRQAPRKGLEWVSVIGAHTNNSAYADSVKGRFTISRDNSKNTLYLQMNSLRAEDTAVYYCAREWMDRSRPYYYYGMDVWGQGTLVTVSS
VL: SYELTQPPSVSVSPGQTVSITCSGRNLEDKFASWYQQKPGQSPVLVIYRDDKRPSGVPERFSASNSGHTATLTISGTQATDEADYYCSSQDTVTRVFGGGTKLTVL

- plaque staining score [3]: 4 score (0-4)
- plaque staining score [4]: 3 score (0-4)
B2: Abet0380-GL IgG1-TM (antibody, V domains shown)
VH: EVQLLESGGGLVQPGGSLRLSCAASMGNFNYQTMWWVRQAPGKGLEWVSVIGKTNENIAYADSVKGRFTISRDNSKNTLYLQMNSLRAEDTAVYYCAREWMDHSRPYYYYGMDVWGQGTLVTVSS
VL: B1 VL with V18A, R25H, V57I, T80M
notes: Whole human IgG1 with the triple mutation L234F/L235E/P331S (TM) and human lambda light chain constant domain; also called Abet0380-GL (germlined) IgG1-TM

- plaque staining score [3]: 1 score (0-4)
- plaque staining score [4]: 1.5 score (0-4)
B3: Abet0144-GL IgG1-TM (antibody, V domains shown)
VH: EVQLLESGGGLVQPGGSLRLSCAASGFTFSVYTMWWVRQAPGKGLEWVSVIGSSGGTTVYADSVKGRFTISRDNSKNTLYLQMNSLRAEDTAVYYCAREWMDHSRPYYYYGMDVWGQGTLVTVSS
VL: B1 VL with V18A, R25H, V57I, T80M, S88Q, S89A, T92S, V93T
notes: Whole human IgG1 with the triple mutation L234F/L235E/P331S (TM) and human lambda light chain constant domain; also called Abet0144-GL (germlined) IgG1-TM
